Results reported in patent US20240294895A1, “ENZYMATIC COMPOSITIONS FOR CARBOHYDRATE ANTIGEN CLEAVAGE ON DONOR ORGANS, METHODS AND USES ASSOCIATED THEREWITH” (THE UNIVERSITY OF BRITISH COLUMBIA, priority 2018, published 2024).

B1: Flavonifractor plautii GalNAcDeacetylase (FpGalNAcDeAc) truncation _D1 + 2 (Flavonifractor plautii) (protein)
chain: ADSSESALNKAPGYQDFPAYYSDSAHADDQVTHPDVVVLEEPWNGYRYWAVYTPNVMRISIYENPSIVASSDGVHWVEPEGLSNPIEPQPPSTRYHNCDADMVYNAEYDAMMAYWNWADDQGGGVGAEVRLRISYDGVHWGVPVTYDEMTRVWSKPTSDAERQVADGEDDFITAIASPDRYDMLSPTIVYDDFRDVFILWANNTGDVGYQNGQANFVEMRYSDDGITWGEPVRVNGFLGLDENGQQLAPWHQDVQYVPDLKEFVCISQCFAGRNPDGSVLHLTTSKDGVNWEQVGTKPLLSPGPDGSWDDFQIYRSSFYYEPGSSAGDGTMRVWYSALQKDTNNKMVADSSGNLTIQAKSEDDRIWRIGYAENSFVEMMRVLLDDPGYTTPALVSGNSLMLSAETTSLPTGDVMKLETSFAPVDTSDQVVKYTSSDPDVATVDEFGTITGVSVGSARIMAETREGLSDDLEIAVVENPYTLIPQSNMTATATSVYGGTTEGPASNVLDGNVRTIWHTNYAPKDELPQSITVSFDQPYTVGRFVYTPRQNGTNGIISEYELYAIHQDGSKDLVASGSDWALDAKDKTVSFAPVEAVGLELKAIAGAGGFGTAAELNVYAYGPIEPAPVYVPVDDRDASLVFTGAWNSDSNGSFYEGTARYTNEIGASVEFTFVGTAIRWYGQNDVNFGAAEVYVDGVLAGEVNVYGPAAAQQLLFEADGLAYGKHTIRIVCVSPVVDFDYFSYVGE
B2: Flavonifractor plautii Galactosaminidase (FpGalNase) truncation _truncA (Flavonifractor plautii) (protein)
chain: AAPATDTGNAGLIAEGDYAIAGNGVRVTYDADGQTITLYRTEGSGLIQMSKPSPLGGPVIGGQEVQDFSHISCDVEQSTSGVMGSGQRMTITSQSMSTGLIRTYVLETSDIEEGVVYTATSYEAGASDVEVSWFIGSVYELYGAEDRIWSYNGGGEGPMHYYDTLQKIDLTDSGKFSRENKQDDTAASIPVSDIYIADGGITVGDASATRREVHTPVQETSDSAQVSIGWPGKVIAAGSVIEIGESFAVVHPGDYYNGLRGYKNAMDHLGVIMPAPGDIPDSSYDLRWESWGWGFNWTIDLIIGKLDELQAAGVKQITLDDGWYTNAGDWALNPEKFPNGASDALRLTDAIHEHGMTALLWWRPCDGGIDSILYQQHPEYFVMDADGRPARLPTPGGGTNPSLGYALCPMADGAIASQVDFVNRAMNDWGFDGFKGDYVWSMPECYNPAHNHASPEESTEKQSEIYRVSYEAMVANDPNVFNLLCNCGTPQDYYSLPYMTQIATADPTSVDQTRRRVKAYKALMGDYFPVTADHNNIWYPSAVGTGSVLIEKRDLSGTAKEEYEKWLGIADTVQLQKGRFIGDLYSYGFDPYETYVVEKDGVMYYAFYKDGSKYSPTGYPDIELKGLDPNKMYRIVDYVNDRVVATNLMGDNAVFNTRFSDYLLVKAVEISEPDPEPVDPDYGFTSVDDRDEALIYTGTWHDDNNASFSEGTARYTNSTDASVVFSFTGTSIRWYGQRDTNFGTAEVYLDDELKTTVDANGAAEAGVCLFEALDLPAAEHTIKIVCKSGVIDIDRFAYEAATLEPIYEKVDALSDRITYVGNWEEYHNSEFYMGNAMRTDEAGAYAELTFRGTAVRLYAEMSFNFGTADVYLDGELVENIILYGQEATGQLMFERTGLEEGEHTIRLVQNAWNINLDYISYLPEQDQPTPPETTVTVDAMDAQLVYTGVWNDDYHDVFQEGTARYASSAGASVEFEFTGSEIRWYGQNDSNFGVASVYIDNEFVQQVNVNGAAAVGKLLFQKADLPAGSHTIRIVCDTPVIDLDYLTYTTNA

Columns and labels:
[1] = substrate: CC(=O)N[C@H]1[C@@H](O[C@H]2[C@@H](O)[C@@H](CO)O[C@@H](O[C@H]3[C@H](O)[C@@H](CO)O[C@@H](O[C@H]4[C@@H](O)[C@@H](CO)O[C@@H](Oc5ccc6c(C)cc(=O)oc6c5)[C@@H]4O)[C@@H]3NC(C)=O)[C@@H]2O[C@@H]2O[C@@H](C)[C@@H](O)[C@@H](O)[C@@H]2O)O[C@H](CO)[C@H](O)[C@@H]1O; test: Kinetic parameters of FpGalNAcDeAc_D1+2 (coupled fluorescence assay, MU release); assay type: biochemical, Flavonifractor plautii; details: other: 100 mM NaH2PO4, pH 7.4, 37° C.
Procedure: (§1) All kinetic assays utilizing 4-methylumbelliferone as leaving group were performed through measurement of fluorescence. To avoid measurement errors based on the inner filter effect (Palmier 2007) standard curves were used to validate the linear range of the fluorophore.
Michaelis-Menten parameters were determined for A antigen subtype 1penta-MU in 100 mM NaH2PO4, pH 7.4 at 37° C. using the coupled assays described previously (Kwan 2015). The assay was modified to allow detection of cleavage of the subtype 1 (and later 4), by use of BgaC (Jeong 2009) instead of BgaA (Singh 2014) as β-galactosidase. In addition, since A antigen subtype 1penta-MU contains an additional galactose, the concentration of BgaC was increased to 0.2 mg/mL to compensate for its need to cleave both the Gal-β-1,3-B-GlcNAc-β-1,3-Gal-β-MU and Gal-β-MU. Further, FpGalactosaminidase was included to allow the cleavage of the galactosamine-containing intermediate. Reaction setup in 100 μl was 3 nM FpGalNacDeacetylase (4.52 nM FpGalNacDeAc_D1ext, 3.55 nM FpGalNacDeAc_D1+2) and 0.01 mg/mL FpGalactosaminidase, 0.1 mg/mL SpHex, AfcA, 0.2 mg/mL BgaC and varying concentrations of substrate (5 μM-2.5 mM). The reactions were run as a series of four with controls (no FpGalNacDeacetylase) as duplicates. The fluorescence signal (365/435 nm) resulting from MU release by hydrolysis was monitored on a Synergy H1™ plate reader (BioTek™) and converted to concentration using MU standard concentration curves determined under identical reaction conditions. Initial rates (μM/s) were determined and plotted in Grafit 7.0 to determine the kinetic parameters.

[2] = substrate: CC(=O)N[C@H]1[C@H](O[C@H]2[C@@H](O)[C@@H](CO)O[C@@H](Oc3ccc4c(C)cc(=O)oc4c3)[C@@H]2O)O[C@H](CO)[C@@H](O)[C@@H]1O[C@@H]1O[C@H](CO)[C@H](O)[C@H](O[C@H]2O[C@H](CO)[C@H](O)[C@H](O)[C@H]2N)[C@H]1O[C@@H]1O[C@@H](C)[C@@H](O)[C@@H](O)[C@@H]1O; test: Kinetic parameters of FpGalNase_truncA (coupled fluorescence assay, MU release); assay type: biochemical, Flavonifractor plautii; details: other: 100 mM NaH2PO4, pH 7.4, 37° C.
Procedure: as §1
Michaelis-Menten parameter was determined for GalN antigen subtype 1penta-MU and A antigen subtype 1penta-MU in 100 mM NaH2PO4, pH 7.4 at 37° C. Reaction was performed in 100 μl with 3.4 nM FpGalactosaminidase (5.31 nM FpGalNase_truncA) and 0.1 mg/mL SpHex, AfcA, 0.2 mg/mL BgaC and varying concentrations of substrate (5 μM-2 mM). The reactions were run as a series of four with controls (no FpGalactosaminidase) as duplicates. The fluorescence signal (365/435 nm) resulting from MU release by hydrolysis was monitored by Synergy H1™ plate reader [BioTek™] and converted to concentration using MU standard concentration curves determined under identical reaction conditions. Initial rates (μM/s) were determined and plotted in Grafit 7.0™ to determine the kinetic parameters.

Protein | Km [1] | kcat [1] | kcat/Km [1] | Km [2] | kcat [2] | kcat/Km [2]
B1 | 265 ± 43 µM | 9.99 s⁻¹ | 37.59 s⁻¹ mM⁻¹ |  |  | 
B2 |  |  |  | 54.7 ± 3.1 µM | 1.86 s⁻¹ | 34.08 s⁻¹ mM⁻¹
